Data on one molecule can be found in publication doi:10.1101/2023.11.01.565136.

The assay deals with T1, Full-length human E6AP (E6-associated protein) (human), Q05086.
T1 chain: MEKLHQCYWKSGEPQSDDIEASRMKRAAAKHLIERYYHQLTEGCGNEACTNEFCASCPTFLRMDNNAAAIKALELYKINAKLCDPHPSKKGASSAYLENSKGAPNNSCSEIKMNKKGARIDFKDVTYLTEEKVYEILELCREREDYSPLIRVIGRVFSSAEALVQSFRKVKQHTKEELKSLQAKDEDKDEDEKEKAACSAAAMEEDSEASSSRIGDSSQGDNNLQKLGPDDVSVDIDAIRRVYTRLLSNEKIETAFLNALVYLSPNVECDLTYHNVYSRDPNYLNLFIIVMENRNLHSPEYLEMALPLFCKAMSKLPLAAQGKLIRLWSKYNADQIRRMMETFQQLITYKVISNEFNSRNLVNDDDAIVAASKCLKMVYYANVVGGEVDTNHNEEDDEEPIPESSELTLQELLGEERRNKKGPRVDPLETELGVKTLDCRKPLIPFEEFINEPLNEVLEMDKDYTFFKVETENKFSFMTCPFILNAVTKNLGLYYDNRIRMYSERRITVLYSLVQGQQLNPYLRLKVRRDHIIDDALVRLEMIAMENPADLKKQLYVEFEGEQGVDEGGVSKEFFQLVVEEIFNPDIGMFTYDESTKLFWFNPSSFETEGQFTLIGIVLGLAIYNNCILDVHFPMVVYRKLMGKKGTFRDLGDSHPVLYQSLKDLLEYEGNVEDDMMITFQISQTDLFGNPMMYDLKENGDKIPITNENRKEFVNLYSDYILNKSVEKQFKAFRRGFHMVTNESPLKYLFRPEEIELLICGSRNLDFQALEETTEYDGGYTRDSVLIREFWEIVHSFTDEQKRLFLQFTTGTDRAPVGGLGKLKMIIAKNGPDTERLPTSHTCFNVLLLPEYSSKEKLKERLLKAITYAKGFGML
The assay is described as follows: mass photometry. The settings on record: remark: other sources report otherwise.

B1: Full-length human E6AP (E6-associated protein), Q05086 1-875 (enzyme)
chain: MEKLHQCYWKSGEPQSDDIEASRMKRAAAKHLIERYYHQLTEGCGNEACTNEFCASCPTFLRMDNNAAAIKALELYKINAKLCDPHPSKKGASSAYLENSKGAPNNSCSEIKMNKKGARIDFKDVTYLTEEKVYEILELCREREDYSPLIRVIGRVFSSAEALVQSFRKVKQHTKEELKSLQAKDEDKDEDEKEKAACSAAAMEEDSEASSSRIGDSSQGDNNLQKLGPDDVSVDIDAIRRVYTRLLSNEKIETAFLNALVYLSPNVECDLTYHNVYSRDPNYLNLFIIVMENRNLHSPEYLEMALPLFCKAMSKLPLAAQGKLIRLWSKYNADQIRRMMETFQQLITYKVISNEFNSRNLVNDDDAIVAASKCLKMVYYANVVGGEVDTNHNEEDDEEPIPESSELTLQELLGEERRNKKGPRVDPLETELGVKTLDCRKPLIPFEEFINEPLNEVLEMDKDYTFFKVETENKFSFMTCPFILNAVTKNLGLYYDNRIRMYSERRITVLYSLVQGQQLNPYLRLKVRRDHIIDDALVRLEMIAMENPADLKKQLYVEFEGEQGVDEGGVSKEFFQLVVEEIFNPDIGMFTYDESTKLFWFNPSSFETEGQFTLIGIVLGLAIYNNCILDVHFPMVVYRKLMGKKGTFRDLGDSHPVLYQSLKDLLEYEGNVEDDMMITFQISQTDLFGNPMMYDLKENGDKIPITNENRKEFVNLYSDYILNKSVEKQFKAFRRGFHMVTNESPLKYLFRPEEIELLICGSRNLDFQALEETTEYDGGYTRDSVLIREFWEIVHSFTDEQKRLFLQFTTGTDRAPVGGLGKLKMIIAKNGPDTERLPTSHTCFNVLLLPEYSSKEKLKERLLKAITYAKGFGML
As for B1, the stoichiometry N (in general, a count of units in the complex or per binding partner) is 2.
